Measurements reported in US20140154252A1.

Key:
CD37 (human) [1] = target: T1, CD37 (human) (UniProt P11049); assay: competition flow cytometry on Ramos B-cells; competitor FITC anti-CD37 antibody [lower graph (Detection of FITC-CD37 mAb]
T1 sequence (looked up): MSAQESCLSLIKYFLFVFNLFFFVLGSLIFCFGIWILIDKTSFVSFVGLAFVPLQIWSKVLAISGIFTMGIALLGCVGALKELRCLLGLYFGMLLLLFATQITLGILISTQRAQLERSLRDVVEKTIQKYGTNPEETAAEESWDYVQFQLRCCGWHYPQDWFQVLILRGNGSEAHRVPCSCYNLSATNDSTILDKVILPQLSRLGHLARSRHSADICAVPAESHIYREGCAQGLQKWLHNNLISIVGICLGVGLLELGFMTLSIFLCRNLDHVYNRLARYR

CD20 (human) [2] = target: CD20 (human) (UniProt P11836); assay: cell-based or functional assay
CD37 (human) [3] = target: T1, CD37 (human); assay: cell-based or functional assay
CD20 (human) [4] = target: CD20 (human) (UniProt P11836); assay: competition flow cytometry on Ramos B-cells; competitor PE anti-CD20 antibody [upper graph (Detection of PE-CD20 mAb]

Chain of CD20 (human) (P11836 whole entry): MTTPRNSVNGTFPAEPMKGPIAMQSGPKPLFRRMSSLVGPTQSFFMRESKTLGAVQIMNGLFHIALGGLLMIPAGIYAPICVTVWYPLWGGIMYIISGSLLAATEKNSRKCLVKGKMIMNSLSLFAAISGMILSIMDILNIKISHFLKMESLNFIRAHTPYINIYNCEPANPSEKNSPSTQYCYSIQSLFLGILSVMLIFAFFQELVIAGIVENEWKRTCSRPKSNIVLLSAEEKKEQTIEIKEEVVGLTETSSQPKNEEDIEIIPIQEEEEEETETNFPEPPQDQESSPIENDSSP

Q: Which results are given for “CD20×CD37 bispecific scorpion (015×016) (bispecific antibody)”?
A: IC50 (read off the curve) (CD37 (human) [1]): 2 nM; IC50 (nM), direct growth inhibition of DoHH2 cells, 96 h, ATP detection (CD20 (human) [2]): 0.05 nM; IC50 (nM), direct growth inhibition of SU-DHL-6 cells, 96 h, ATP detection (CD20 (human) [2]): 0.05 nM; IC50 (nM), direct growth inhibition of DoHH2 cells, 96 h, ATP detection (CD37 (human) [3]): 0.05 nM; IC50 (nM), direct growth inhibition of SU-DHL-6 cells, 96 h, ATP detection (CD37 (human) [3]): 0.05 nM; IC50 (read off the curve) (CD20 (human) [4]): 5 nM
